{
  "source": "a protein production outcome set (Wang et al. 2014)",
  "data": [
    {"assay": "label from the status in PepcDB records", "values": [
      {"sequence": "MPDIDAGPRCRDAGSRMFRLAHLTDPHVGPLPRPRLRQLLSKRAAGYVNWRRGRSRHHDMDLLGALIADLHGQGVDHVACTGDLCNLGLPDEWESARVFLEALGPADRVSFVPGNHDAYVRGSLEGLLAACGGWTEADDGQIRLFPYLRRRGPLALVGLSSAIPTKPFVASGRLGPVQIEAAERVLRDLATAPDRPCRVVMIHHPPHPGGAASGRELKDAAAFAAMIGRAGADLILHGHNHVGTVARITGPDGRPVPVVGAPSASARTLLTNRRASYYLYTVTPGENGFQIAVTERGLDEAGGIGELSGFDIETPPADRIGLVHRRRQRHT", "protein production": "failed"},
      {"sequence": "MPDIFQQEARGWLRCGAPPFAGAVAGLTTKHGGESKGPFASLNMGLHVGDDRTDVVNNRRRLAEWLAFPLERWVCCEQVHGADIQKVTKSDRGNGAQDFATAVPGVDGLYTDEAGVLLALCFADCVPIYFVAPSAGLVGLAHAGWRGTAGGIAGHMVWLWQTREHIAPSDIYVAIGPAIGPCCYTVDDRVVDSLRPTLPPESPLPWRETSPGQYALDLKEANRLQLLAAGVPNSHIYVSERCTSCEEALFFSHRRDRGTTGRMLAFIGRREEWT", "protein production": "not failed"},
      {"sequence": "MPDIVNTEQAQAWNGPEGAHWARNQDRWNAVNEGFDEPLLDAAGITGEDRVLDLGCGSGQTTRRAALRAPRGHVLGLDLSGPMLAEARSRAEREGVANVSFAQGDAQVHPFGAGAFDAAVSRYGVMFFADPVAAFGNVGRALRPGGRLAFVCPADAALNGWVTAMASLREVLPVGDFGQPGLPGMFSLAAPDRIGDVLTAAGFAGIDVNQVQAHGTWGRDAEDAAEFLLGTGPGRHLMERADPTARARARGILTDHLRTHEAADGTVRLLSTSWLTTATRPAATA", "protein production": "failed"},
      {"sequence": "MPDMPPTETNAIQDRLPRTTNSVEDTMALGARIAQGLSPGAVVALYGDLGTGKTHFVKGVAQGLGLPPAEVRSPTFTILAVHDDGDRPLYHFDAYRVQTPDEFVELGFETYVHGDGLTCIEWAGRVADLLPADTVPLQFHHVAPSTRRITLGAPDSSSSEDDR", "protein production": "failed"},
      {"sequence": "MPELSVILAGFGDALAPINLLFILFGVALGQFVGAVPGIGPVMATAIAIPFTFGMDPLTGIAFLVGVNKGGLVGGAIPAVLLNTPGTPDAAATALDGYPLAKQGKPLKATKMALFSSITGDTFSDIVLITVSAPMAILALRMGPVEVLGLMLLAFAVIAGLMGQSLVKGVVAIALGLMAAMVGTDPEHGSPRLIFGNYELYDGLPLASVAIGMLAISELLKRLSETRGTVRPAITLPRNQPRADRSVSWAEYWGCRFTMLRGAVIGTILGALPGIGSTAAAFMSYASARQASKEPESFGKGSLHGIAASESANSSVMGANMIPMLTLGIPGSVSAALIISAFMIHGIQPGPFLFSQQGQLVYGLFGAMIIANLINLWVGQLGLRFWVRVVSAPEPFIFASALLMCFVGVALASGGLFGIGVMLVFALLAYVMSAFGISVVVFIIAFFLGPRLEISLSQTLALLNGQPQKLLDYPFALVLMALALVTAVALARRRDTESETR", "protein production": "failed"},
      {"sequence": "MPETAWLSDIETLTYLHATVSTHRHQVRVPETPMHLDAILADQVLTGGLEPRLGQAHLRTLTIMGFPSQTWPGLLDDLNRLAFDYRWVTRAICLDKTDAAKVLGRIRRQWFAKRKSIAAMLKEIMTNEASALMDSDAANKAVDADMALQELGSDLVGAAYVTATVTIWNDDPRIADERLRLVEKVIQGRDFTCMVERVNAVEAWLGSLPGHVYANVRQPPVSTLNLAHMMPFSAVWAGPERDEHFDAPPLFLAKTEGSTPFRFSLHVGDVGHTLVVGPTGAGKSVLLALMALQFRRYARSQIFAFDFGGSIRAAALAMRGDWHDLGGSLAEDASEPVALQPLAGIDAEEERAWAAEWVAAILAREKVEITPDVKEHVWSALNNLASAPKSERTLTGLSVLLQSQALKQALKPYCVGGPWGRLLDAETERVGSADVLAFETEGLIGTGAAAAVLAYLFHRIEHRLDGRPTLLIVDEGWLALDDEGFASQLREWLKTLRKKNASVIFATQSLADIDGSAIAPAIIESCPTRLFLPNERALEPQIATIYERFGLNDRQIEILSRATPKRDYYCQSRRGNRLFELGLGEVALAFTAASSKGDQILIARLMAEHGPTGFAKAWLEARGVAWATDLIITPQKEKLPLEHHHHHH", "protein production": "not failed"},
      {"sequence": "MPETSSMLESVVAYLQQAEPSSVYAVLFLSAYFENVIPPIPGDVPIALAGYLLTFSHITFVAALFWSTIGSVAGFMTVFLLSRFLGLKLYAVGECEARHKFAQSIHKLFPPSEMEVVRQKFSGHGYLAVVVNRFLFGSRAVICIVAGMLHLKIPLVLAASFVSSLLWNILLLSTGYLLGSNWDKIGQYAVLYTAPFTILFTGFIVWKVVAYLKKRKQQADGA", "protein production": "failed"},
      {"sequence": "MPFPPEVYVLLVAALPVVELRGAIPLGVALGLSPWESFLWALLGNLLVVPLALGLLPWAVGLATRMPLFARAWRALEVRVRLKGEAQVQRLGALGLFLFVAVPLPGTGAWSGAVLAVVLGVRRRYAFPALALGVVAAGLLVLLLTGGTVYGLNYLR", "protein production": "failed"},
      {"sequence": "MPGDLPMPTTMFTADELAVIRRAYAHQVMATAATTNPRIEAAFATVPREKFLGAPPWQIANLGGGNRPLPSSDLVLAYQDVLFALQPDNGVNNGSPSLHARLLAELDIQIGDRIAHIGAGTGYYSAILAELVGTSGHVYAVEMDPDLAAHAQAALAERANVSVINADGSQWPQQEVDAIYVNFAVARPAEPWIERLRPGGRLVLPLGVPRQDRPPKGGRHASHGAALRIEHGEGGFAARWIGTAYFVCANGGLTIDDNEIEALTAAFRRGGIEFVKSLLWKTEPRIGRCWHIGGQWALCYDDV", "protein production": "failed"},
      {"sequence": "MPGEPGISTRPFSHCERGTTTRCGEGDAHVTVVISHLLVPATVSTVVTSSSFDRLQALLQRPAVASISPALREALARAWQELPPAQTDNVPWALLGDTLDALALLAADEATLIAALLFDLPALRGAVTDLPWQPAERRVAVEGLLDGLDAADQVWALHAGREAGRNSEGLRRLLLSIIHDLRVVPILLARQLSRMRVADRLSKEQRHALAQLTRDIHAPLANRLGIWQVKWELEDLAFRHLEPDTYRRIAREVDETRVARERYLEAVKRTLSAALAQQGLRADVSGRPKHIYSIWRKMQKKRLSFDQLYDIRAVRVMVDDVAACYAALGAVHSLWAPVPSEFDDYIARPKANDYRSLHTAVVGPEGRTIEIQIRTHEMHAQAELGVAAHWKYKEGGKGGEKAFDRKILWMRQLLEQVQEGEHGELAGALDAELIEDRVYALTPKGEVIDLPQGATPLDFAYHVHTMVGHRCRGARVNDRIVPLTYRLRSGDRVEIMTAKEADPRRDWLLASNGFLASGRSRDKVRAWFHKLDRARNVQAGKDLLDRELKRLGLQHADLSVATRKFHADTIDDLYIQVALGDTGPNQVSRALLEAERAASQPAVPAPPRPTARREGLGKSKFTVEGVGNLLVQLARCCQPVAGEPIAGYLTRGRGITVHRTDCAALARLAAAHPQRVLPVEWGKAGTGYEVDVQVRAVDRRWLLKDITNLIAQEDAHVLEINSDNVRDTGRAQLRLRLKVSDYDQLSGLLGKLDALPGVSEVRRLG", "protein production": "failed"},
      {"sequence": "MPGFEVLYQAAALCLTYPDDDFRARLPLLREAAPQLRGFTDHAAATGQGELQAHYVEVFDFRNRHSLYLSWWTDGDTRNRGMSLVRFKELYRAHGLEFTGEELPDFLPAVLEFVSRTGDMGMLTEHRDALDQLRARLTAFGTPYACVLDAVCATLPPAPTGARR", "protein production": "failed"},
      {"sequence": "MPGHVPPDLAVIEVTERRTRRSPAGYRPRMSEVVQVGAWGLLAGSALLLGAAIGFGVRVSQKVIATVMAFGAGVLISAVSYELVGEAYEQAGLAPAAIGTVIGAAAYTLGNLWLARRGARHRKRSGHHTAQAQPSEAQQGGSGLALAFGALLDGVPESAVIGVSLLDGGTVSTVTVAAVFISNVPEGLSSSAGMKRAGRGTTYVFGVWGAIAATSTLAAVLGYTVVGAFSPAVIAAVTAVAAGAILAMIADTMIPEAFEDAHLAIGLVTVSGFLVSFALSHV", "protein production": "failed"},
      {"sequence": "MPGLPEVAPGDDLAKLIAAVEPGLVDGDVLLVTSKIVSKAEGRIVRADDREAAIDAETVRVVARRGALRIVENRQGLVMAAAGVDASNTPSGTVLLLPEDPDASARAIRDGLRDTLGVDVGVVVTDTFGRPWRTGLTDVAIGAAGVRVLDDLRGGTDAYGNPLSATVVATADELAAAGDLVKGKAAGLPVAVVRGLPHVIAGDDEAGARAMVRGGRDDMFRLGTSEAVREAVTQRRTVRAFTDEPVDPGAVRRAVAAAVTAPAPHHTTPWRFVLLESAESRTRLLDAMRDAWIADLRGDRKTEESIAKRVRRGDVLRNAPYLVVPCMVMDGSHSYGDARRDAAEREMFVVATGAGVQNFLVALAGERLGSAWVSSTMFCRDVVRRALGLPESWEPMGAVAVGHAAEEPRDRPARDAGAFIEVRLEHHHHHH", "protein production": "not failed"},
      {"sequence": "MPGRKRKLAAKTAELAPEAGEGSESTSLVGSADASASTAAGVAHTEQQEMPSGGLHESFLESIPPAASFLEELAWVESLASPSYVAYLCQMRRFDDVVAQRRLTTLQRWRQDPAYRQHVSQPIALFFLEQLCSAEFREALRHPAVAALYERQVDLYRRCYGNLLNTGESRVLR", "protein production": "not failed"},
      {"sequence": "MPGSALLSLQQELRRGFEALKAAKDTFDGGHAECQELVSSLGNLAPQLKALKQVQISETPLSGFPCLQQRLHYKLSLAVDALLAKLAEKMAALQKVWDAFAQQVFTVVQLYEKNTDALDISVCVSRSAVCPSVSDMLEWLQDADRYYRLQLMQSRLLLQTLTPTDLTSMETAPNRWRSVRSARQEERIADALCQVSIFLETE", "protein production": "failed"},
      {"sequence": "MPGSRDILADLVAFDTVSRESNLALIDYVRDYLAGFGVDSELFFDADGRKANLYATIGPSDRGGVCLSGHTDVVPADGQAWSVPPFRLSERDGRLYGRGTADMKGYLACVLAAVPAFLAAPLRLPVHLAFSYDEEVGCLGVRSLLAALERRPHKPLLCIIGEPTELKPVLGHKGKLAMRCEVHGAACHSAYAPQGVNAIEYAARLIGRLGEIGARLAVPERHDRRFDPPYSTVQTGLIQGGRALNIVPAECRFDFEVRALPADDPRQVAEELRDYAESELLPRMRAVERSTDIRFTPLSAYPGLLTADDSQAAELIGLLSGSTDFSTVAFGTEGGLFHQAGIPAVICGPGSMDQGHKPDEFVSLAQLEACDALLARLAAW", "protein production": "failed"},
      {"sequence": "MPGWHAGGKPACRVPLLTKTGRFKRPVFSSSLSATPRFVAALRSTLLYEGAQHMLKLFVRNLPPQTTEAGLKELFTGYGKVFELQLSRDMFTGKARGTASVSMEGHEARKAIEALDGSDYEGKTIYVALDKGPRSGGRGRR", "protein production": "failed"},
      {"sequence": "MPGYQKTKDVGHFLSVTGTVIRTSLVKVLEFERDYMCNKCKHVFVIKADFEQYYTFCRPSSCPSLESCDSSKFTCLSGLSSSPTRCRDYQEIKIQEQVQRLSVGSIPRSMKVILEDDLVDSCKSGDDLTIYGIVMQRWKPFQQDVRCEVEIVLKANYIQVNNEQSSGIIMDEEVQKEFEDFWEYYKSDPFAGRNVILASLCPQVFGMYLVKLAVAMVLAGGIQRTDATGTRVRGESHLLLVGDPGTGKSQFLKYAAKITPRSVLTTGIGSTSAGIVLNCTVSPGSLVCKLNTRTTILAATNPKGQYDPQESVSVNIALGSPLLSRFDLILVLLDTKNEDWDRIISSFILENKGYPSKSEKLWSMEKMKTYFCLIRNLQPTLSDVGNQVLLRYYQMQRQSDCRNAARTTIRLLESLIRLAEAHARLMFRDTVTLEDAITVVSVMESSMEVHC", "protein production": "failed"},
      {"sequence": "MPIDQEKLAKLQKLSANNKVGGTRRKLNKKAGSSAGANKDDTKLQSQLAKLHAVTIDNVAEANFFKDDGKVMHFNKVGVQVAAQHNTSVFYGLPQEKNLQDLFPGIISQLGPEAIQALSQLAAQMEKHEAKAPADAEKKDEAIPELVEGQTFDADVE", "protein production": "failed"},
      {"sequence": "MPIFSFLLFVFISSFTPGPNNFLAMTYANQHGLKRSINFCFGVAFGFFILTSLCSFFNIVLINIIPIIEFPLKILGVAYMLYLAFKIITSKGGAGHNEKNNKNLFTVGIFLQFINPKGILFGLTVVSTFILPYYNSYSSFLLFSLFLGIVGLLSTFSWSLFGSMFQKLLLKHNQLFNIIMAVLLVFSAVSIVIH", "protein production": "failed"}
    ]}
  ]
}
